# Test results as given in patent US20240209061A1, “FUSION PROTEINS AND USES THEREOF” (Pfizer Inc., priority 2020, published 2024).
# Experiments:
# [1] = test system: EMT6 murine breast cancer cells; test: EMT6 breast cancer model, combination with talazoparib; assay type: in vivo, mouse
# Experimental: EMT6murine breast cancer cells (3×10^5) were orthotopically implanted in the mammary fat pad of female Balb/c mice. When tumors reached ˜90 mm^3 (day 5 after implantation), mice were randomized and dosed with PBS vehicle control, CD80-K89Q-D90Q-E23C-A26C-Fc (0.1 or 1 mg/kg), and/or 0.33 mg/kg talazoparib (Tala). CD80-D90Q-Fc was dosed on Days 0 and 3, talazoparib was dosed daily. Tumor volume was determined by caliper measurements obtained in 2 dimensions and calculated as width^2×length/2. Error bars are depicted as ±SEM
# [2] = test system: Jurkat-IL-2-Luc reporter cells; test: Jurkat-IL-2-Luc and HCT116-CD64 reporter co-stimulation assay; assay type: cell-based, human
# Excerpt: A T cell co-stimulation assay was designed based on T Cell Activation Bioassay (IL-2) Kit from Promega (Product #J1631). The assay consisted of a genetically engineered Jurkat T cell line that expresses luciferase reporter driven by an IL-2 promoter. Co-engagement of T cell antigen receptor (TCR/CD3) and CD28 co-stimulatory receptor induces activation of T cells and downstream intracellular signaling pathways that in turn regulate the expression of luciferase reporter. As described above, HCT116 human colon cancer cell line was used for TCR engagement using the CDH3×CD3 bispecific and genetically engineered by lentiviral transduction to express human FCγRI.
# A 96 well culture plate was seeded with HCT116 parental or HCT116-CD64 cells at 40,000 cells per well in 100 μL RPMI with 10% HI FBS and grown overnight at 37° C. in CO2 incubator. To each well, Jurkat reporter cells (100,000 per well) and 10 μL of the CDH3×CD3 bispecific (8 ng/ml final concentration) were added. 10 μL of serial dilutions of variant CD80-Fc fusion proteins with concentrations ranging from 0-1000 ng/ml (final concentrations per well) was added with appropriate controls. Assay plates were incubated for 6 hours at 37° C. in CO2 incubator for before harvesting culture supernatants and transferring to new plates. Following equilibration, 80 μL of BioGlo luminescence reagent (BioGlo Luciferase assay kit, Promega, G7940) was added into each well. Plates were incubated for 5 minutes before reading luminescence on the EnSight™ plate reader (PerkinElmer).
# Jurkat is an immortalized human T cell line, and the Jurkat IL-2-reporter assay assesses the CD28-mediated signaling resulting in activation of the IL-2 promoter. The activity of CD80-Fc fusion proteins was measured using the co-culture HCT116-CD64-Jurkat IL-2 reporter assay, as described in Example 2, but using 20 ng/ml CDH3×CD3 bispecific.
# [3] = test system: NY-ESO1-TCR+ Jurkat reporter cells; test: Jurkat-NYESO1-IL-2-Luc and A375-CD64 co-stimulation assay; assay type: cell-based, human
# Excerpt: Jurkat-IL-2-Luc reporter cells (Promega, Product #J1631) were engineered with T cell receptor, TCR (Wargo J. Cancer Immunol Immunother 2009; Zhao Y. J Immunol 2005, Li Y, Nat Biotechnol 2005) against HLA-A2 restricted NY-ESO1 (SLLMWITQC-SEQ ID NO: 19) epitope using lentiviral transduction system. Human melanoma cells A375, which express human HLA-A*0201, were transduced with lentiviral vector containing endogenous codon for NY-ESO1 gene (Refseq accession NM_001327.2, CCDS14758.1). Upon expression, the construct underwent proteolytic cleavage at the ubiquitin/epitope junction, thus generating free, cytoplasmic epitope, which can be translocated into the endoplasmic reticulum and loaded onto class I HLA. A375-NY-ESO1 positive cells were treated with IFNγ to induce HLA expression and NY-ESO1 antigen presentation. The HLA expression and the antigen presentation was confirmed by Western Blot. The NY-ESO1^+-A375 cells were further engineered to express human FCγRI (CD64, GenBank:AAA58414.1, RefSeq:P12314.1) for cell surface assembly and displaying of CD80-Fc fusion proteins. The expression of FCγRI was confirmed by flow cytometry analysis.
# A 96 well culture plate was seeded with NY-ESO1^+-A375 cells or NY-ESO1^+/FCγRI^+-A375 at 40,000 cells per well in 100 µL growth media (RPMI, 10% Heat Inactivated FBS, 200 μg/mL Hygromycin B, 1 mM sodium pyruvate, 0.1 mM MEM NEAA, 1 μg/mL puromycin) containing 10 ng/ml of human IFNγ (R&D Systems, product #285-IF) to induce MHC-A2 expression and grown overnight at 37° C. in CO2 incubator. To each well, NY-ESO1-TCR^+ Jurkat reporter cells, 100,000 (in 20 μL media), were added. 20 μL of serial dilutions of variant CD80-Fc fusion proteins with concentrations ranging from 0-1000 ng/ml (final concentrations per well) was added with appropriate controls. Assay plates were incubated for 6 hours at 37° C. in CO2 incubator. Following equilibration, 80 μL BioGlo luminescence reagent (BioGlo Luciferase assay kit, Promega, G7940) was added into each well. Plates were incubated for 5 minutes before reading luminescence on the EnSight™ plate reader (PerkinElmer).
# recombinant soluble CD28 = target: T1, recombinant soluble CD28 (Homo sapiens, UniProt P10747); test: ELISA binding to recombinant soluble CD28; conditions: standard ELISA, FIG. 2A
# T1 construct: Recombinant soluble CD28 and CTLA-4 proteins (from Creative BioMart, Product #CD28-3910H, CTLA-4-2232H) were immobilized; purchased Creative BioMart CD28-3910H
# Experimental: Binding affinity of purified CD80-Fc fusion proteins (WT and variant) to recombinant soluble CD28 and CTLA-4 proteins was determined by standard ELISA. Recombinant soluble CD28 and CTLA-4 proteins (from Creative BioMart, Product #CD28-3910H, CTLA-4-2232H) were immobilized on 96 well microtiter plate (Thermo Scientific, Product #436110) in bicarbonate buffer at 4° C. overnight. After washing with 1×PBS containing 0.05% Tween 20 (wash buffer) plates were incubated with blocking buffer, 5% BSA in PBS, for 1 hour at room temperature. A serial dilution of CD80-Fc fusion proteins and human IgG1 isotype control antibody was prepared in blocking buffer, added into the plate and incubated at room temperature for 1 hour. Following washing 3× with wash buffer, 1:4000 dilution of HRP conjugated secondary anti-human IgG1 antibody (R&D Systems, MAB110-100) was added into the plate and incubated at room temperature for 1 hour. Plates were washed 3× with wash buffer and a 100 μl of LumiGlo (SeraCare, Product #5430-0040) reagent added into each well, incubated for 5 minutes at room temperature before reading luminescence signal in EnSight™ plate reader (PerkinElmer).
# [4] = target: CD28 expressed on Jurkat T cell line / human T cells (human) (UniProt P10747); test: cell-based or functional assay
# [5] = AC-SINS self-interaction assay; assay type: physicochemical; conditions: Table 6
# Experimental: Variant CD80-Fc fusion proteins were assessed by measuring non-specific binding using a DNA- and insulin-binding ELISA (Avery et al., MAbs. 2018 February/March; 10(2): 244-255) and for self-interaction in an AC-SINS assay (affinity-capture self-interaction nanoparticle spectroscopy; Liu et al., 2014, mAbs 6:483-92). DNA- and insulin-binding scores were calculated as the signal ratio of the ELISA signal of the CD80-Fc fusion protein at 10 μg/ml to the ELISA signal in the absence of the Fc-fusion protein (buffer only). For the AC-SINS assay, proteins are captured by anti-human Fc antibodies coated on gold nanoparticles. […] The score ranges obtained from these in vitro assays correlate well with in vivo clearance using huFcRn transgenic (Tg32) mouse. Therapeutic proteins with high scores are at high risk for rapid clearance and unfavorable PK and therapeutics that score low are at low risk and favorable PK.
# [6] = Thermal stability by Differential Scanning calorimetry (DSC); assay type: physicochemical; conditions: PBS
# Experimental: There is a correlation between the thermal stability of a protein with the overall stability of the protein. Enhanced thermal stability often provides improved manufacturability and longer shelf life/stability. Thermal stability of variant CD80-Fc fusion proteins was assessed by Differential Scanning calorimetry (DSC). Variant CD80-Fc fusion proteins were analyzed using a MicroCal VP-DSC instrument. […] Tables 8-10 show the first thermal transition temperature (Tm1) of CD80-Fc fusion proteins and the enhanced thermal stability of variant CD80-Fc fusion proteins compared to CD80-WT-Fc fusion proteins.
# [7] = test system: human peripheral blood mononuclear cells (PBMCs); test: Human PBMC IL-2 production assay with plate-bound anti-CD3; assay type: cell-based; conditions: Donor 418; 0.3 ug/ml anti-CD3
# Experimental: The ability of the variant CD80-Fc fusion proteins to promote IL-2 production in the context of anti-CD3 (to stimulate T cell receptor signaling) in human peripheral blood mononuclear cells (PBMCs) was tested. To bind anti-CD3 antibody on the plate, the anti-human-CD3 (clone HIT3a, BD Pharmingen) was incubated in 96-well plates at 4° C. overnight at 1 μg/ml unless otherwise noted. Human PBMCs were isolated from freshly collected human whole blood using Ficoll-Paque Plus. Human PBMCs (100,000 per well) were incubated with plate-bound anti-CD3 and the indicated concentrations of soluble CD80-Fc fusion protein in RPMI+10% HI-FBS, pen/strep, sodium pyruvate and non-essential amino acids. After 48 hours incubation, supernatants were collected and IL-2 measured by the Quantikine human IL-2 ELISA kit from R&D.
# Additional CD80-Fc fusion proteins were tested in the same PBMC assay, at the concentration of anti-human-CD3 (clone HIT3a, BD Pharmingen) noted.
compound,measurement,setting,value
"Cn1ncnc1[C@H]1c2n[nH]c(=O)c3cc(F)cc(c23)N[C@@H]1c1ccc(F)cc1 [Talazoparib, (8S,9R)-5-fluoro-8-(4-fluorophenyl)-9-(1-methyl-1H-1,2,4-triazol-5-yl)-8,9-dihydro-2H-pyrido[4,3,2-de]phthalazin-3(7H)-one, reference compound]",% tumor growth inhibition,"[1]; Day 20, Talazoparib 0.33 mg/kg alone",10.9%
same,Day 20 tumor volume,[1]; Talazoparib 0.33 mg/kg daily alone,1750.1 mm^3
CD80-D90K-Fc: variant CD80 ECD (D90K) fused to human IgG1 Fc,enhanced co-stimulation compared to CD80-WT-Fc,[2],~8 fold
same,enhanced co-stimulation compared to CD80-WT-Fc,[3],about 4 fold
same,binding affinity to CD28 compared to WT CD80-Fc,recombinant soluble CD28,increased binding affinity to CD28
CD80-D90N-Fc: variant CD80 ECD (D90N) fused to human IgG1 Fc,enhanced co-stimulation compared to CD80-WT-Fc,[3],about 4 fold
CD80-D90Q-E23C-A26C-Fc (Fc fusion),"IL-2 EC50, human PBMC assay with plate-bound anti-CD3 (average of 5 donors)",[4],24.2 nM
"CD80-K89D-D90K-Fc: variant CD80 ECD (K89D, D90K) fused to human IgG1 Fc",enhanced co-stimulation compared to CD80-WT-Fc,[2],~8 fold
same,binding affinity to CD28 compared to WT CD80-Fc,recombinant soluble CD28,increased binding affinity to CD28
"CD80-K89D-D90N-Fc: variant CD80 ECD (K89D, D90N) fused to human IgG1 Fc",enhanced co-stimulation compared to CD80-WT-Fc,[2],about 4 fold
same,enhanced co-stimulation compared to CD80-WT-Fc,[3],about 8 fold
same,binding affinity to CD28 compared to WT CD80-Fc,recombinant soluble CD28,increased binding affinity to CD28
"CD80-K89D-D90Q-Fc: variant CD80 ECD (K89D, D90Q) fused to human IgG1 Fc",enhanced co-stimulation compared to CD80-WT-Fc,[2],about 4 fold
same,enhanced co-stimulation compared to CD80-WT-Fc,[3],about 8 fold
same,binding affinity to CD28 compared to WT CD80-Fc,recombinant soluble CD28,increased binding affinity to CD28
CD80-K89D-Fc: variant CD80 ECD (K89D) fused to human IgG1 Fc,binding affinity to CD28 compared to WT CD80-Fc,recombinant soluble CD28,increased binding affinity to CD28
"CD80-K89Q-D90Q-161C-Fc: disulfide stabilized variant CD80-Fc fusion protein (K89Q, D90Q, I61C)",AC-SINS Score,[5],−1
same,DSC Tm1,[6],64.10 ± 0.17 °C
"CD80-K89Q-D90Q-V22C-G45C-Fc: disulfide stabilized variant CD80-Fc fusion protein (K89Q, D90Q, V22C, G45C)",AC-SINS Score,[5],−1
same,DSC Tm1,[6],68.67 ± 0.22 °C
CD80-K89Q-Fc: variant CD80 ECD (K89Q) fused to human IgG1 Fc,binding affinity to CD28 compared to WT CD80-Fc,recombinant soluble CD28,increased binding affinity to CD28
CD80-T28V-T57V-Fc (Fc fusion),"IL-2 EC50, human PBMC assay, donor 418, anti-CD3 0.3 ug/ml",[4],2.64 nM
CD80-T28V-T57V-Fc: non-cysteine stabilized variant CD80-Fc fusion protein,DSC Tm1,[6],64 °C
same,EC50,[7],2.64 nM
CD80-V11L-T62Y-Fc (Fc fusion),"IL-2 EC50, human PBMC assay, donor 418, anti-CD3 0.3 ug/ml",[4],3.34 nM
CD80-V11L-T62Y-Fc: non-cysteine stabilized variant CD80-Fc fusion protein,DSC Tm1,[6],58.76 ± 0.14 °C
same,EC50,[7],3.34 nM
CD80-V11L-V22F-Fc (Fc fusion),"IL-2 EC50, human PBMC assay, donor 418, anti-CD3 0.3 ug/ml",[4],4.95 nM
CD80-V11L-V22F-Fc: non-cysteine stabilized variant CD80-Fc fusion protein,DSC Tm1,[6],61.52 ± 0.12 °C
same,EC50,[7],4.95 nM
CD80-V22F-T28V-T57V-Fc (Fc fusion),"IL-2 EC50, human PBMC assay, donor 418, anti-CD3 0.3 ug/ml",[4],5.13 nM
CD80-V22F-T28V-T57V-Fc: non-cysteine stabilized variant CD80-Fc fusion protein,DSC Tm1,[6],64 °C
same,EC50,[7],5.13 nM
